One block for each binder: values may come before it.
Key:
[1] = biological target: T1, human ICOS expressed on cells (human, UniProt Q9Y6W8 21-199); test: cell-based or functional assay
T1 sequence: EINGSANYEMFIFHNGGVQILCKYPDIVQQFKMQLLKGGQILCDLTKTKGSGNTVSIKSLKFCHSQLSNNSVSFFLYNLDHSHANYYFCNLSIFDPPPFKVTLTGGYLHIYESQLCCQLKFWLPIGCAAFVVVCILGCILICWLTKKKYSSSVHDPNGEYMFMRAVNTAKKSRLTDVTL

[2] = biological target: T1, human ICOS expressed on cells; test: cell-based or functional assay; remark: listed apart in the source
[3] = biological target: T2, mouse PD-L1 expressed on CHO-S cells (mouse, UniProt Q9EP73 19-290); test: flow cytometry on CHO cells expressing mouse PD-L1, anti-human IgG PE detection
T2 construct: also called mPD-L1; CHO mouse PD-L1
Procedure: (§1) CHO-S cells untransfected (referred to as WT) or transfected with mPD-L1 were diluted in FACS buffer (PBS+1% w/v BSA+0.1% w/v sodium azide) and were distributed to a 96-well V-bottom plate (Greiner) at a density of 5×10⁴ cells per well. […] Plates were centrifuged at 300×g for 3 minutes to supernatant aspirated. 50 μL antibody or mAb² solution were added to cells and incubated at 4° C. for 1 hour. Cells were washed with 150 μL of PBS and centrifuged at 300 g for 3 minutes. Supernatant was aspirated and 150 μL PBS added. This wash step was repeated. […] Cells were incubated for 1 hour at 4° C. in the dark. Cells were washed as previously described. To fix cells, 100 μL 4% v/v paraformaldehyde was added and cells incubated for 20 minutes at 4° C., cells were pelleted by centrifugation at 300×g and the plates resuspended in 100 μL FACS buffer.

[4] = biological target: T3, human PD-L1 expressed on cells (human, UniProt Q9NZQ7 19-290); test: flow cytometry on CHO cells expressing human PD-L1, anti-human IgG PE detection
T3 construct: also called CHO human PD-L1; CHO-S cells transfected with human PD-L1
Procedure: as §1, with “the cDNA coding for human PD-L1” for “mPD-L1”

[5] = biological target: T4, mouse ICOS-mFc (Chimerigen) (mouse, UniProt Q9WVS0 21-141, limits assumed); test: DELFIA ELISA, coated mouse ICOS-mFc, mean
T4 construct: Bought fusion; also called mICOS; recombinant mouse ICOS protein; not shown: mouse Fc
T4 sequence: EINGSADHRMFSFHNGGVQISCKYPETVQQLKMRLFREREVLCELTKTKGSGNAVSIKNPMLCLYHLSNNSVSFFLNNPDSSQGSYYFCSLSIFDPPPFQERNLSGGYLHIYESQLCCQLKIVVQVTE
Procedure: Recombinant ICOS proteins, human ICOS-mFc or mouse ICOS-mFc (Chimerigen) were diluted in 1×PBS and added to Black Hi-bind plates (Griener) at 1 μg/ml, 50 μl/well. Recombinant PD-L1 proteins, human PD-L1-Flag-His or mouse-His were diluted in 1×PBS and added to Black Hi-bind plates (Griener) at 4 μg/ml, 50 μl/well. The plates were left overnight at 4° C. The next day plates were washed 3× with 300 μl/well of 1×PBS+0.1% Tween and blocked with 200 μl/well of 1×PBS+1% BSA blocking buffer for 1 hr at RT on a plate shaker. Plates were washed 3× with 300 μl/well of 1×PBS+0.1% Tween.
However, human-PD-L1 mAb² antibodies were diluted in 1×PBS+0.1% BSA buffer and diluted 1 in 2 from a starting working concentration of 0.066 μM over an 11 point titration. Titrated antibodies were added to the plates, 50 μl/well and left to incubate for 1 hr at R.T on a plate shaker. Plates were washed 3× with 300 μl/well of 1×PBS+0.1% Tween.
DELFIA® Eu-labelled Anti-human IgG(Perkin-Elmer) was diluted 1:500 in DELFIA Assay buffer (Perkin-Elmer) and added to the assay plate (50 μl/well), left to incubate for 1 hr at RT on a plate shaker. […] After incubation, assay was read on Envision plate reader (Perkin Elmer), Time-resolved fluorescence (TRF) was measured at 615 nm.

[6] = biological target: FcγRIIIa on Jurkat NFAT luciferase v-variant effector cells (Promega) (human, UniProt P08637 17-254); test: cell-based or functional assay
FcγRIIIa on Jurkat NFAT luciferase v-variant effector cells (Promega), sequence (P08637 other isoform, or with tags, fused parts or gaps mutant limits assumed): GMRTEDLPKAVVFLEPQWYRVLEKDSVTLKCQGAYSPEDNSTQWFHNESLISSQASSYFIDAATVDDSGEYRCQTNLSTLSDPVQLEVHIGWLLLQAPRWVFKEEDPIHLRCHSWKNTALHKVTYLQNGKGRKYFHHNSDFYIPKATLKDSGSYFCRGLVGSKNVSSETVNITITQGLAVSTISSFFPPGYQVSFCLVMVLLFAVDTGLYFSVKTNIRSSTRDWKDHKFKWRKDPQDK

T2 sequence (Q9EP73 19-290 limits assumed): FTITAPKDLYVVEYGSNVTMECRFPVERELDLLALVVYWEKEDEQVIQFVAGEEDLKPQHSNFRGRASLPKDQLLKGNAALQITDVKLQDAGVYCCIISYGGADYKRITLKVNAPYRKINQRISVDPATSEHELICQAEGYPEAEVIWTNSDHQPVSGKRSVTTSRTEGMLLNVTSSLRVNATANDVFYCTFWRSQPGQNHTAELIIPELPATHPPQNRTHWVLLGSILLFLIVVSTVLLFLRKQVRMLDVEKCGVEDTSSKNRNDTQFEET
T3 sequence (Q9NZQ7 19-290 limits assumed): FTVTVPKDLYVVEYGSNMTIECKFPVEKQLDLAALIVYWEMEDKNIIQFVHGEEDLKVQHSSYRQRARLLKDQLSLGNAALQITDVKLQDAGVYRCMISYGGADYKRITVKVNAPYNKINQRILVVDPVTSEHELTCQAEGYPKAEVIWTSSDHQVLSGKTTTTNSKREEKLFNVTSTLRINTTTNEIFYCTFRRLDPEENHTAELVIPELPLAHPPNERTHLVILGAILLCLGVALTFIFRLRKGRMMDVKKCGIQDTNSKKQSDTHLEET

EC50, ADCC (BATDA dye release), ICOS-transfected CCRF-CEM targets, NK cells, Donor 326 [1]: 30.9 pM | EC50, ADCC (BATDA dye release), ICOS-transfected CCRF-CEM targets, NK cells, Donor 334 [1]: 4.1 pM | EC50, ADCC (BATDA dye release), ICOS-transfected CCRF-CEM targets, NK cells, Donor 341 [1]: ~10.3 pM | EC50, ADCC (BATDA dye release), ICOS-transfected CCRF-CEM targets, NK cells, Median [1]: 17.5 pM | EC50 of IFN-γ release, plate-bound antibody, human T cells with CD3/CD28 beads, Median [2]: 9450 pM | EC50 of IFN-γ release, plate-bound antibody, human T cells with CD3/CD28 beads, donor 276 [2]: ~10000 pM | EC50 of IFN-γ release, plate-bound antibody, human T cells with CD3/CD28 beads, donor 278 [2]: 8900 pM | EC50 of IFN-γ release, plate-bound antibody, human T cells with CD3/CD28 beads, donor 289 [2]: 7100 pM | EC50 of IFN-γ release, plate-bound antibody, human T cells with CD3/CD28 beads, donor 295 [2]: 11900 pM
B1: STIM001_289 (bispecific antibody, V domains shown, not shown: a dimerising Fc or GST)
VH: QVQVVQSGAEVKKPGASVKVSCKASGYTFSTFGITWVRQAPGQGLEWMGWISAYNGDTNYAQNLQGRVIMTTDTSTSTAYMELRSLRSDDTAVYYCARSSGHYYYYGMDVWGQGTTVTVSS
VL: DIVMTQSPLSLPVTPGEPASISCRSSQSLLHSNEYNYLDWYLQKPGQSPQLLIFLGSNRASGVPDRFSGSGSGTDFTLKITRVEAEDVGIYYCMQSLQTPLTFGGGTKVEIK

EC50, ADCC (BATDA dye release), ICOS-transfected CCRF-CEM targets, NK cells, Donor 326 [1]: 11.1 pM | EC50, ADCC (BATDA dye release), ICOS-transfected CCRF-CEM targets, NK cells, Donor 334 [1]: 18.3 pM | EC50, ADCC (BATDA dye release), ICOS-transfected CCRF-CEM targets, NK cells, Donor 341 [1]: 6.6 pM | EC50, ADCC (BATDA dye release), ICOS-transfected CCRF-CEM targets, NK cells, Median [1]: 12 pM | EC50 of IFN-γ release, plate-bound antibody, human T cells with CD3/CD28 beads, Median [2]: 8100 pM | EC50 of IFN-γ release, plate-bound antibody, human T cells with CD3/CD28 beads, donor 276 [2]: ~6000 pM | EC50 of IFN-γ release, plate-bound antibody, human T cells with CD3/CD28 beads, donor 278 [2]: ~3800 pM | EC50 of IFN-γ release, plate-bound antibody, human T cells with CD3/CD28 beads, donor 289 [2]: 10200 pM | EC50 of IFN-γ release, plate-bound antibody, human T cells with CD3/CD28 beads, donor 295 [2]: 12700 pM
B2: STIM003_289 (bispecific antibody, V domains shown, not shown: a dimerising Fc or GST)
VH: EVQLVESGGGVVRPGGSLRLSCVASGVTFDDYGMSWVRQAPGKGLEWVSGINWNGGDTDYSDSVKGRFTISRDNAKNSLYLQMNSLRAEDTALYYCARDFYGSGSYYHVPFDYWGQGILVTVSS
VL: EIVLTQSPGTLSLSPGERATLSCRASQSVSRSYLAWYQQKRGQAPRLLIYGASSRATGIPDRFSGDGSGTDFTLSISRLEPEDFAVYYCHQYDMSPFTFGPGTKVDIK

EC50, ADCC (BATDA dye release), ICOS-transfected CCRF-CEM targets, NK cells, Donor 326 [1]: 42.6 pM | EC50, ADCC (BATDA dye release), ICOS-transfected CCRF-CEM targets, NK cells, Donor 334 [1]: 20.5 pM | EC50, ADCC (BATDA dye release), ICOS-transfected CCRF-CEM targets, NK cells, Donor 341 [1]: 7.6 pM | EC50, ADCC (BATDA dye release), ICOS-transfected CCRF-CEM targets, NK cells, Median [1]: 23.6 pM | EC50 of IFN-γ release, plate-bound antibody, human T cells with CD3/CD28 beads, Median [2]: 10700 pM | EC50 of IFN-γ release, plate-bound antibody, human T cells with CD3/CD28 beads, donor 276 [2]: ~9900 pM | EC50 of IFN-γ release, plate-bound antibody, human T cells with CD3/CD28 beads, donor 278 [2]: ~10200 pM | EC50 of IFN-γ release, plate-bound antibody, human T cells with CD3/CD28 beads, donor 289 [2]: ~11200 pM | EC50 of IFN-γ release, plate-bound antibody, human T cells with CD3/CD28 beads, donor 295 [2]: 14500 pM | EC50 [5]: 10600 pM | EC50, NFAT luciferase reporter, CHO human ICOS target cells, N=1 [6]: 456 pM | EC50, NFAT luciferase reporter, CHO human ICOS target cells, N=2 [6]: 247 pM | EC50, NFAT luciferase reporter, CHO human ICOS target cells, N=3 [6]: 147 pM | EC50, NFAT luciferase reporter, CHO human ICOS target cells, mean [6]: 283 pM | EC50, NFAT luciferase reporter, CHO mouse ICOS target cells, N=1 [6]: 479 pM | EC50, NFAT luciferase reporter, CHO mouse ICOS target cells, N=2 [6]: 534 pM | EC50, NFAT luciferase reporter, CHO mouse ICOS target cells, N=3 [6]: 579 pM | EC50, NFAT luciferase reporter, CHO mouse ICOS target cells, mean [6]: 530 pM
B3: STIM001 (antibody, human IgG1, kappa)
heavy: not shown
light: DIVMTQSPLSLPVTPGEPASISCRSSQSLLHSNEYNYLDWYLQKPGQSPQLLIFLGSNRASGVPDRFSGSGSGTDFTLKITRVEAEDVGIYYCMQSLQTPLTFGGGTKVEIKRTVAAPSVFIFPPSDEQLKSGTASVVCLLNNFYPREAKVQWKVDNALQSGNSQESVTEQDSKDSTYSLSSTLTLSKADYEKHKVYACEVTHQGLSSPVTKSFNRGEC
notes: also called STIM001 IgG1; STIM0001
binding result [3]: no binding (tested: about 2e-8 M (log M -7.7)) | binding result [4]: no binding (tested: about 2e-7 M (log M -6.7))

EC50, ADCC (BATDA dye release), ICOS-transfected CCRF-CEM targets, NK cells, Donor 326 [1]: 21.2 pM | EC50, ADCC (BATDA dye release), ICOS-transfected CCRF-CEM targets, NK cells, Donor 334 [1]: 3.7 pM | EC50, ADCC (BATDA dye release), ICOS-transfected CCRF-CEM targets, NK cells, Donor 341 [1]: 6.7 pM | EC50, ADCC (BATDA dye release), ICOS-transfected CCRF-CEM targets, NK cells, Median [1]: 10.5 pM | EC50 of IFN-γ release, plate-bound antibody, human T cells with CD3/CD28 beads, Median [2]: 5550 pM | EC50 of IFN-γ release, plate-bound antibody, human T cells with CD3/CD28 beads, donor 276 [2]: 7100 pM | EC50 of IFN-γ release, plate-bound antibody, human T cells with CD3/CD28 beads, donor 278 [2]: 3800 pM | EC50 of IFN-γ release, plate-bound antibody, human T cells with CD3/CD28 beads, donor 289 [2]: ~4000 pM | EC50 of IFN-γ release, plate-bound antibody, human T cells with CD3/CD28 beads, donor 295 [2]: ~11600 pM | EC50, NFAT luciferase reporter, CHO human ICOS target cells, N=1 [6]: 326 pM | EC50, NFAT luciferase reporter, CHO human ICOS target cells, N=2 [6]: 477 pM | EC50, NFAT luciferase reporter, CHO human ICOS target cells, N=3 [6]: 240 pM | EC50, NFAT luciferase reporter, CHO human ICOS target cells, mean [6]: 347 pM | EC50, NFAT luciferase reporter, CHO mouse ICOS target cells, N=1 [6]: 508 pM | EC50, NFAT luciferase reporter, CHO mouse ICOS target cells, N=2 [6]: 754 pM | EC50, NFAT luciferase reporter, CHO mouse ICOS target cells, N=3 [6]: 702 pM | EC50, NFAT luciferase reporter, CHO mouse ICOS target cells, mean [6]: 655 pM
B4: STIM003 (antibody, human IgG1, kappa)
heavy: not shown
light: EIVLTQSPGTLSLSPGERATLSCRASQSVSRSYLAWYQQKRGQAPRLLIYGASSRATGIPDRFSGDGSGTDFTLSISRLEPEDFAVYYCHQYDMSPFTFGPGTKVDIKRTVAAPSVFIFPPSDEQLKSGTASVVCLLNNFYPREAKVQWKVDNALQSGNSQESVTEQDSKDSTYSLSSTLTLSKADYEKHKVYACEVTHQGLSSPVTKSFNRGEC
notes: also called STIM003 IgG1
binding result [3]: no binding (tested: about 2e-8 M (log M -7.7)) | binding result [4]: no binding (tested: about 2e-7 M (log M -6.7))

— patent publication US20260049143A1 (KYMAB, published 2026)
